Reference: patent US20210253718A1 (MODMAB THERAPEUTICS, published 2021)
Where a chain is given by its changes, count along the chain named.

B1: Fab-2905 (Fab, V domains shown)
VH: EVQLVESGGGLVQPGGSLRLSCAASGFNLSYYYMHWVRQAPGKGLEWVASIYSSYSYTSYADSVKGRFTISADTSKNTAYLQMNSLRAEDTAVYYCARSGYALDYWGQGTLVTVSS
VL: DIQMTQSPSSLSASVGDRVTITCRASQSVSSAVAWYQQKPGKAPKLLIYSASSLYSGVPSRFSGSRSGTDFTLTISSLQPEDFATYYCQQSSWYYGYPFTFGQGTKVEIK
notes: Fab; also called Fv-2905
B2: Fab-2900 (Fab, V domains shown)
VH: EVQLVESGGGLVQPGGSLRLSCAASGFNLSSYYIHWVRQAPGKGLEWVASISSSSSSTSYADSVKGRFTISADTSKNTAYLQMNSLRAEDTAVYYCARGALDYWGQGTLVTVSS
VL: DIQMTQSPSSLSASVGDRVTITCRASQSVSSAVAWYQQKPGKAPKLLIYSASSLYSGVPSRFSGSRSGTDFTLTISSLQPEDFATYYCQQWYSGSSLFTFGQGTKVEIK
notes: Fab; also called Fv-2900
B3: Fab-2932 (Fab, V domains shown)
VH: B2 VH with L29I, S31Y, Y32S, I34M, S52Y, S55Y
VL: B2 VL with S93G, G94S, S95F, S96A, F98I
notes: Fab; also called Fv-2932
B4: Fab-2903 (Fab, V domains shown)
VH: B2 VH with S31Y, S52Y, S53P, S54Y, S57Y, L101I
V domain: DIQMTQSPSSLSASVGDRVTITCRASQSVSSAVAWYQQKPGKAPKLLIYSASSLYSGVPSRFSGSRSGTDFTLTISSLQPEDFATYYCQQWGGGSSLFTFG
notes: Fab; also called Fv-2903
B5: Fab-2901 (Fab, V domains shown)
VH: EVQLVESGGGLVQPGGSLRLSCAASGFNISYSYMHWVRQAPGKGLEWVASIYSYSSYTYYADSVKGRFTISADTSKNTAYLQMNSLRAEDTAVYYCARSWYYWSPSSGMDYWGQGTLVTVSS
VL: DIQMTQSPSSLSASVGDRVTITCRASQSVSSAVAWYQQKPGKAPKLLIYSASSLYSGVPSRFSGSRSGTDFTLTISSLQPEDFATYYCQQGGFLITFGQGTKVEIK
notes: Fab; also called Fv-2901
B6: Fab-2915 (Fab, V domains shown)
VH: EVQLVESGGGLVQPGGSLRLSCAASGFNIYYYSMHWVRQAPGKGLEWVASIYSSYGYTSYADSVKGRFTISADTSKNTAYLQMNSLRAEDTAVYYCARGYHYYPYYSGLDYWGQGTLVTVSS
VL: DIQMTQSPSSLSASVGDRVTITCRASQSVSSAVAWYQQKPGKAPKLLIYSASSLYSGVPSRFSGSRSGTDFTLTISSLQPEDFATYYCQQAYYHSLITFGQGTKVEIK
notes: Fab; also called Fv-2915
B7: Fab-2931 (Fab, V domains shown)
VH: EVQLVESGGGLVQPGGSLRLSCAASGFNLSYSSMHWVRQAPGKGLEWVAYISPYSGSTYYADSVKGRFTISADTSKNTAYLQMNSLRAEDTAVYYCARGSYWYVGGGWWVSGHGGMDYWGQGTLVTVSS
VL: DIQMTQSPSSLSASVGDRVTITCRASQSVSSAVAWYQQKPGKAPKLLIYSASSLYSGVPSRFSGSRSGTDFTLTISSLQPEDFATYYCQQSSYSLITFGQGTKVEIK
notes: Fab; also called Fv-2931

Assays:
[1] = target: T1, FZD9 cysteine-rich domain (CRD), MYC-tagged and GPI-anchored on CHO cells (human, UniProt O00144 35-161, GPI anchor); experiment: immunofluorescence, CHO-CRD cells
T1 construct: also called FZD9 CRD; CHO-myc-FZDGPI; not shown: MYC tag and GPI anchor signal
T1 sequence: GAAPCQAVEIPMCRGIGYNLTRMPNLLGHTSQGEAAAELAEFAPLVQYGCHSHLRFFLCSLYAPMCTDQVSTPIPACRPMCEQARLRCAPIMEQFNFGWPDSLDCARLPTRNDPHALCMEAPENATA

[2] = target: T2, FZD6 cysteine-rich domain (CRD), MYC-tagged and GPI-anchored on CHO cells (human, UniProt O60353 20-146, GPI anchor); experiment: immunofluorescence, CHO-CRD cells
T2 construct: also called FZD6 CRD; CHO-myc-FZDGPI; not shown: MYC tag and GPI anchor signal
T2 sequence: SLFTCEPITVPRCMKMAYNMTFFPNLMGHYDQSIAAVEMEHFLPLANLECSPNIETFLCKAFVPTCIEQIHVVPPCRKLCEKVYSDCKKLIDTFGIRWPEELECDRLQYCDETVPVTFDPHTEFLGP

[3] = target: T3, FZD4 cysteine-rich domain (CRD), MYC-tagged and GPI-anchored on CHO cells (human, UniProt Q9ULV1 42-167, GPI anchor); experiment: immunofluorescence, CHO-CRD cells
T3 construct: also called FZD4 CRD; CHO-myc-FZDGPI; not shown: MYC tag and GPI anchor signal
T3 sequence: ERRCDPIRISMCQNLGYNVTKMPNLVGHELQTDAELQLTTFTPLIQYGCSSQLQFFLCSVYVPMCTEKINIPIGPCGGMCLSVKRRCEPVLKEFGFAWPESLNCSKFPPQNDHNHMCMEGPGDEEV

[4] = target: T4, FZD10 cysteine-rich domain (CRD), MYC-tagged and GPI-anchored on CHO cells (human, UniProt Q9ULW2 30-156, GPI anchor); experiment: immunofluorescence, CHO-CRD cells
T4 construct: also called FZD10 CRD; CHO-myc-FZDGPI; not shown: MYC tag and GPI anchor signal
T4 sequence: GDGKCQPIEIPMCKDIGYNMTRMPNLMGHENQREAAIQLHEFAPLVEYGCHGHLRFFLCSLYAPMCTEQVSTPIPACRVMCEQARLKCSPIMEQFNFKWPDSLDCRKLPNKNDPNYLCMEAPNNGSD

[5] = target: T5, FZD3 cysteine-rich domain (CRD), MYC-tagged and GPI-anchored on CHO cells (human, UniProt Q9NPG1 24-150, GPI anchor); experiment: immunofluorescence, CHO-CRD cells
T5 construct: domain: cysteine-rich domain (CRD); also called FZD3 CRD; CHO-myc-FZDGPI; not shown: MYC tag and GPI anchor signal
T5 sequence (looked up): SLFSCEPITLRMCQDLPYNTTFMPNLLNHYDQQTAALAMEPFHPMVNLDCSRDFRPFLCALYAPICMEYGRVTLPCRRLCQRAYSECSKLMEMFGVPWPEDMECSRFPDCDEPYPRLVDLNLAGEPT

[6] = target: T6, FZD5 cysteine-rich domain (CRD), MYC-tagged and GPI-anchored on CHO cells (human, UniProt Q13467 29-156, GPI anchor); experiment: flow cytometry, CHO-CRD cells;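 also: flow cytometry of Fab binding to CHO cells overexpressing a Frizzled CRD, with binding defined as median fluorescence over twice that of CHO cells lacking any Frizzled CRD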
T6 construct: also called FZD5 CRD; CHO-myc-FZDGPI; not shown: MYC tag and GPI anchor signal
T6 sequence: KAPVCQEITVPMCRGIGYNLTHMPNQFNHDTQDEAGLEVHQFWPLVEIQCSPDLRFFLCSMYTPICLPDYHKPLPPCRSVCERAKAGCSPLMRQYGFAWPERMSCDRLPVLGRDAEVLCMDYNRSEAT

[7] = target: T1, FZD9 cysteine-rich domain (CRD), …; experiment: flow cytometry, CHO-CRD cells;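 also: flow cytometry of Fab binding to CHO cells overexpressing a Frizzled CRD, with binding defined as median fluorescence over twice that of CHO cells lacking any Frizzled CRD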
Experimental: (§1) Binding was measured via flow cytometry analysis of CHO cells overexpressing CRD of FZD1, FZD2, FZD3, FZD4, FZD5, FZD6, FZD7, FZD8, FZD9 or FZD10. Median fluorescence values are shown.

[8] = target: T2, FZD6 cysteine-rich domain (CRD), …; experiment: flow cytometry, CHO-CRD cells;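 also: flow cytometry of Fab binding to CHO cells overexpressing a Frizzled CRD, with binding defined as median fluorescence over twice that of CHO cells lacking any Frizzled CRD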
Experimental: as §1

[9] = target: T3, FZD4 cysteine-rich domain (CRD), …; experiment: flow cytometry, CHO-CRD cells;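 also: flow cytometry of Fab binding to CHO cells overexpressing a Frizzled CRD, with binding defined as median fluorescence over twice that of CHO cells lacking any Frizzled CRD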
Experimental: as §1

[10] = target: T4, FZD10 cysteine-rich domain (CRD), …; experiment: flow cytometry, CHO-CRD cells
Experimental: as §1

[11] = target: T5, FZD3 cysteine-rich domain (CRD), …; experiment: flow cytometry, CHO-CRD cells
Experimental: as §1

[12] = target: T7, FZD8 cysteine-rich domain (CRD), MYC-tagged and GPI-anchored on CHO cells (human, UniProt Q498S8 31-155 (rat entry), GPI anchor); experiment: flow cytometry, CHO-CRD cells
T7 construct: also called FZD8 CRD; CHO-myc-FZDGPI; not shown: MYC tag and GPI anchor signal
T7 sequence: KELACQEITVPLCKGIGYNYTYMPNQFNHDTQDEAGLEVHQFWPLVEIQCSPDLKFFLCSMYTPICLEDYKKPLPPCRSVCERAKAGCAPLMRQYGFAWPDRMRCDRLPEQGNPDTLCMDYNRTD

[13] = target: FZD7 cysteine-rich domain (CRD), MYC-tagged and GPI-anchored on CHO cells (human, UniProt O75084 45-169); experiment: flow cytometry, CHO-CRD cells
Experimental: as §1

[14] = target: FZD1 cysteine-rich domain (CRD), MYC-tagged and GPI-anchored on CHO cells (human); experiment: flow cytometry, CHO-CRD cells
Experimental: as §1

[15] = target: FZD2 cysteine-rich domain (CRD), MYC-tagged and GPI-anchored on CHO cells (human, UniProt Q14332 35-161); experiment: flow cytometry, CHO-CRD cells
Experimental: as §1

Row | Binder | binding result [1] | binding result [2] | binding result [3] | binding result [4] | binding result [5] | median fluorescence [6] | median fluorescence [7] | median fluorescence [8] | median fluorescence [9] | median fluorescence [10] | median fluorescence [11] | median fluorescence [12] | median fluorescence [13] | median fluorescence [14] | median fluorescence [15]
1 | B1 | no binding | no binding | no binding | no binding | no binding | 24.8 | 3.25 | 3.22 | 4.57 | 3.31 | 4.1 |  |  |  | 
2 | B2 | no binding | no binding | no binding | no binding | no binding | 38.2 | 3.01 | 3.37 | 5.62 | 3.25 | 4.26 | 23.3 |  |  | 
3 | B3 | no binding | no binding | no binding | no binding | no binding | 29.4 | 3.62 | 3.11 | 4.26 | 3.82 | 3.85 | 28.9 | 34.3 | 16.6 | 
4 | B4 | no binding | no binding | no binding | no binding | no binding | 34.9 | 3.11 | 3.52 | 5.52 | 3.05 | 4.18 | 13.7 | 8.58 | 8.66 | 
5 | B5 | no binding | no binding | no binding | no binding | no binding | 32.8 | 3.25 | 3.62 | 5.09 | 3.85 | 4.1 | 10.9 | 47 | 17.1 | 
6 | B6 | no binding | no binding | no binding | no binding | no binding |  | 3.92 | 3.37 | 5.99 | 3.92 | 5.05 |  | 40.7 | 36.9 | 22.1
7 | B7 | no binding | no binding | no binding | no binding | no binding | 28.1 | 2.76 | 2.89 | 3.65 | 2.59 | 3.49 |  |  |  | 
